# In patent publication US9266964:
# Target: human plasma kallikrein (human, UniProt P03952 20-390; P03952 391-638)
# Test: cell-based or functional assay
# Target sequence in this assay (P03952 20-390, chain 1 of 2): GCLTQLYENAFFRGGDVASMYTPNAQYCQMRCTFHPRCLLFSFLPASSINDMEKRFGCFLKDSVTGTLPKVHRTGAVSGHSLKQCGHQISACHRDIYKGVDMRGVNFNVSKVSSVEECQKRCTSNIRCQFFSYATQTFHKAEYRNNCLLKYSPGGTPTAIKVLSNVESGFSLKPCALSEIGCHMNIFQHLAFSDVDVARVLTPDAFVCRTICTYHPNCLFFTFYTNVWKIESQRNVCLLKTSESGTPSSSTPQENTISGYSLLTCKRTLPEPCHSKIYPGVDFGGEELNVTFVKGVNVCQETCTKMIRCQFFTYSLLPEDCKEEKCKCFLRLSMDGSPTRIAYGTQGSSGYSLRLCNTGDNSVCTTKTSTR
# Target sequence in this assay (P03952 391-638, chain 2 of 2): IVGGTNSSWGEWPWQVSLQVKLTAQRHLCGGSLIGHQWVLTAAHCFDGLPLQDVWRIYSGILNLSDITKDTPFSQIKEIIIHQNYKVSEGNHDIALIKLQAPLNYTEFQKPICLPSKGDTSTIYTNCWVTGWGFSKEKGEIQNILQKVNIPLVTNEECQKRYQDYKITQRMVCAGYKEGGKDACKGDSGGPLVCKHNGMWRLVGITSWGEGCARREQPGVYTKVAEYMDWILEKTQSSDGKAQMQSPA
row,Binder,% inhibition at 10 nM [%]
1,"M209-H07 (Fab, V domains shown) VH: EVQLLESGGGLVQPGGSLRLSCAASGFTFSHYLMTWVRQAPGKGLEWVSYISPSGGHTIYADSVKGRFTISRDNSKNTLYLQMNSLRAEDTAVYYCARVARGIAARQRTSYYDYWGQGTLVTVSS VL: DIQMTQSPGTLSLSPGERATLSCRTSQFVNSNYLAWYQQTPGQAPRLLIYGASSRATGIPDRFSGTGYGTDFTLTISRLEPEDYGTYYCQQSSRTPWTFGQGTRVEIK",76.1
2,"M207-C05 (Fab, V domains shown) VH: EVQLLESGGGLVQPGGSLRLSCAASGFTFSHYLMTWVRQAPGKGLEWVSYISPSGGHTIYADSVKGRFTISRDNSKNTLYLQMNSLRAEDTAVYYCARVGRGIAARSRTSYFDKWGQGTLVTVSS VL: DIQMTQSPGTLSLSPGERATLSCRTSQFVNSNYLAWYQQTPGQAPRLLIYGASSRATGIPDRFSGTGYGTDFTLTISRLEPEDYGTYYCQQSSRTPWTFGQGTRVEIK",61.4
3,"M206-C03 (Fab, V domains shown) VH: EVQLLESGGGLVQPGGSLRLSCAASGFTFSQYMMVWVRQAPGKGLEWVSSIYSSGGNTPYADSVKGRFTISRDNSKNTLYLQMNSLRAEDTAVYYCARVARGIAARSRTSYFDYWGQGTLVTVSS VL: DIQMTQSPGTLSLSPGERATLSCRTSQFVNSNYLAWYQQTPGQAPRLLIYGASSRATGIPDRFSGTGYGTDFTLTISRLEPEDYGTYYCQQSSRTPWTFGQGTRVEIK",65.5
4,"M210-A06 (Fab, V domains shown) VH: EVQLLESGGGLVQPGGSLRLSCAASGFTFSHYLMTWVRQAPGKGLEWVSYISPSGGHTIYADSVKGRFTISRDNSKNTLYLQMNSLRAEDTAVYYCARVARGIAARSRTSQFDYWGQGTLVTVSS VL: DIQMTQSPGTLSLSPGERATLSCRTSQFVNSNYLAWYQQTPGQAPRLLIYGASSRATGIPDRFSGTGYGTDFTLTISRLEPEDYGTYYCQQSSRTPWTFGQGTRVEIK",74.8
5,"M203-A01 (Fab, V domains shown) VH: EVQLLESGGGLVQPGGSLRLSCAASGFTFSNYLMAWVRQAPGKGLEWVSWIVPSGGYTEYADSVKGRFTISRDNSKNTLYLQMNSLRAEDTAVYYCARVARGIAARSRTSYFDYWGQGTLVTVSS VL: DIQMTQSPGTLSLSPGERATLSCRTSQFVNSNYLAWYQQTPGQAPRLLIYGASSRATGIPDRFSGTGYGTDFTLTISRLEPEDYGTYYCQQSSRTPWTFGQGTRVEIK",51.4
6,"M209-G01 (Fab, V domains shown) VH: EVQLLESGGGLVQPGGSLRLSCAASGFTFSHYLMTWVRQAPGKGLEWVSYISPSGGHTIYADSVKGRFTISRDNSKNTLYLQMNSLRAEDTAVYYCARVAQGISGRSRLSYVDYWGQGTLVTVSS VL: DIQMTQSPGTLSLSPGERATLSCRTSQFVNSNYLAWYQQTPGQAPRLLIYGASSRATGIPDRFSGTGYGTDFTLTISRLEPEDYGTYYCQQSSRTPWTFGQGTRVEIK",74.8
7,"M209-B01 (Fab, V domains shown) VH: EVQLLESGGGLVQPGGSLRLSCAASGFTFSHYLMTWVRQAPGKGLEWVSYISPSGGHTIYADSVKGRFTISRDNSKNTLYLQMNSLRAEDTAVYYCARVARGIVARSRTSNFDQWGQGTLVTVSS VL: DIQMTQSPGTLSLSPGERATLSCRTSQFVNSNYLAWYQQTPGQAPRLLIYGASSRATGIPDRFSGTGYGTDFTLTISRLEPEDYGTYYCQQSSRTPWTFGQGTRVEIK",47
8,"M209-E03 (Fab, V domains shown) VH: EVQLLESGGGLVQPGGSLRLSCAASGFTFSHYLMTWVRQAPGKGLEWVSYISPSGGHTIYADSVKGRFTISRDNSKNTLYLQMNSLRAEDTAVYYCARQARGIAARSRTSYFDYWGQGTLVTVSS VL: DIQMTQSPGTLSLSPGERATLSCRTSQFVNSNYLAWYQQTPGQAPRLLIYGASSRATGIPDRFSGTGYGTDFTLTISRLEPEDYGTYYCQQSSRTPWTFGQGTRVEIK",68.8
9,"M205-B04 (Fab, V domains shown) VH: EVQLLESGGGLVQPGGSLRLSCAASGFTFSNYDMIWVRQAPGKGLEWVSSISSSGGTTKYADSVKGRFTISRDNSKNTLYLQMNSLRAEDTAVYYCARVARGIAARSRTSYFDYWGQGTLVTVSS VL: DIQMTQSPGTLSLSPGERATLSCRTSQFVNSNYLAWYQQTPGQAPRLLIYGASSRATGIPDRFSGTGYGTDFTLTISRLEPEDYGTYYCQQSSRTPWTFGQGTRVEIK",71.1
10,"M205-F03 (Fab, V domains shown) VH: EVQLLESGGGLVQPGGSLRLSCAASGFTFSSQQMVWVRQAPGKGLEWVSYISPSGGNTYYADSVKGRFTISRDNSKNTLYLQMNSLRAEDTAVYYCARVARGIAARSRTSYFDYWGQGTLVTVSS VL: DIQMTQSPGTLSLSPGERATLSCRTSQFVNSNYLAWYQQTPGQAPRLLIYGASSRATGIPDRFSGTGYGTDFTLTISRLEPEDYGTYYCQQSSRTPWTFGQGTRVEIK",58.6
11,"M206-H04 (Fab, V domains shown) VH: EVQLLESGGGLVQPGGSLRLSCAASGFTFSSYMMVWVRQAPGKGLEWVSSISPSGGYTIQADSVKGRFTISRDNSKNTLYLQMNSLRAEDTAVYYCARVARGIAARSRTSYFDYWGQGTLVTVSS VL: DIQMTQSPGTLSLSPGERATLSCRTSQFVNSNYLAWYQQTPGQAPRLLIYGASSRATGIPDRFSGTGYGTDFTLTISRLEPEDYGTYYCQQSSRTPWTFGQGTRVEIK",19
12,"M205-A12 (Fab, V domains shown) VH: EVQLLESGGGLVQPGGSLRLSCAASGFTFSQYDMIWVRQAPGKGLEWVSYISSSGGFTRYADSVKGRFTISRDNSKNTLYLQMNSLRAEDTAVYYCARVARGIAARSRTSYFDYWGQGTLVTVSS VL: DIQMTQSPGTLSLSPGERATLSCRTSQFVNSNYLAWYQQTPGQAPRLLIYGASSRATGIPDRFSGTGYGTDFTLTISRLEPEDYGTYYCQQSSRTPWTFGQGTRVEIK",58.8
13,"M207-A01 (Fab, V domains shown) VH: EVQLLESGGGLVQPGGSLRLSCAASGFTFSHYLMTWVRQAPGKGLEWVSYISPSGGHTIYADSVKGRFTISRDNSKNTLYLQMNSLRAEDTAVYYCARVARGISARSRTSCFDYWGQGTLVTVSS VL: DIQMTQSPGTLSLSPGERATLSCRTSQFVNSNYLAWYQQTPGQAPRLLIYGASSRATGIPDRFSGTGYGTDFTLTISRLEPEDYGTYYCQQSSRTPWTFGQGTRVEIK",67.2
14,"M203-A03 (Fab, V domains shown) VH: EVQLLESGGGLVQPGGSLRLSCAASGFTFSVYMMIWVRQAPGKGLEWVSSISPSGGQTTYADSVKGRFTISRDNSKNTLYLQMNSLRAEDTAVYYCARVARGIAARSRTSYFDYWGQGTLVTVSS VL: DIQMTQSPGTLSLSPGERATLSCRTSQFVNSNYLAWYQQTPGQAPRLLIYGASSRATGIPDRFSGTGYGTDFTLTISRLEPEDYGTYYCQQSSRTPWTFGQGTRVEIK",69.1
15,"M208-D12 (Fab, V domains shown) VH: EVQLLESGGGLVQPGGSLRLSCAASGFTFSHYLMTWVRQAPGKGLEWVSYISPSGGHTIYADSVKGRFTISRDNSKNTLYLQMNSLRAEDTAVYYCARLARGIAARSRTSYQDIWGQGTLVTVSS VL: DIQMTQSPGTLSLSPGERATLSCRTSQFVNSNYLAWYQQTPGQAPRLLIYGASSRATGIPDRFSGTGYGTDFTLTISRLEPEDYGTYYCQQSSRTPWTFGQGTRVEIK",43.7
16,"M209-D02 (Fab, V domains shown) VH: EVQLLESGGGLVQPGGSLRLSCAASGFTFSHYLMTWVRQAPGKGLEWVSYISPSGGHTIYADSVKGRFTISRDNSKNTLYLQMNSLRAEDTAVYYCARVARGITARSRTSYFDDWGQGTLVTVSS VL: DIQMTQSPGTLSLSPGERATLSCRTSQFVNSNYLAWYQQTPGQAPRLLIYGASSRATGIPDRFSGTGYGTDFTLTISRLEPEDYGTYYCQQSSRTPWTFGQGTRVEIK",74.7

# Target: T1, human plasma kallikrein (human, UniProt P03952 20-390; P03952 391-638)
# T1 construct: also called pKal; human pKal
# Test: apparent inhibition constant (Ki,app) against human pKal, enzyme inhibition
# T1 sequence (P03952 20-390, chain 1 of 2): as the sequence (P03952 20-390, chain 1 of 2) above
# T1 sequence (P03952 391-638, chain 2 of 2): as the sequence (P03952 391-638, chain 2 of 2) above
row,Binder,Ki [nM]
1,"X67-B03 (antibody, V domains shown, Single point mutant (F to S at P2 of HC CDR3) of M142-H08; Only variable domains and the start of CH1 are printed; also called 559A-X67-B03) VH: EVQLLESGGGLVQPGGSLRLSCAASGFTFSAYSMIWVRQAPGKGLEWVSYIRPSGGRTTYADSVKGRFTISRDNSKNTLYLQMNSLRAEDTAVYYCARGGLLLWSRELKSNYFDYWGQGTLVTVSS VL: DIQMTQSPSSLSAFVGDRVTITCRASQPIDNYLNWYHQKPGKAPKLLIYAASRLQSGVPSRLSGSGFGTDFTLTISSLQPEDFGNYYCQQSYTVPYTFGGGTKVEIR",2.1
2,"X67-E04 (antibody, V domains shown, Single point mutant (F to D at P2 of HC CDR3) of M142-H08; Only variable domains and the start of CH1 are printed; also called 559A-X67-E04) VH: EVQLLESGGGLVQPGGSLRLSCAASGFTFSAYSMIWVRQAPGKGLEWVSYIRPSGGRTTYADSVKGRFTISRDNSKNTLYLQMNSLRAEDTAVYYCARGGLLLWDRELKSNYFDYWGQGTLVTVSS VL: DIQMTQSPSSLSAFVGDRVTITCRASQPIDNYLNWYHQKPGKAPKLLIYAASRLQSGVPSRLSGSGFGTDFTLTISSLQPEDFGNYYCQQSYTVPYTFGGGTKVEIR",1.3
3,"X67-C03 (antibody, V domains shown, Single point mutant (F to M at P2 of HC CDR3) of M142-H08; the printed HC is used; Only variable domains and the start of CH1 are printed; also called 559A-X67-C03) VH: EVQLLESGGGLVQPGGSLRLSCAASGFTFSAYSMIWVRQAPGKGLEWVSYIRPSGGRTTYADSVKGRFTISRDNSKNTLYLQMNSLRAEDTAVYYCARGGLLLWMRELKSNYFDYWGQGTLVTVSS VL: DIQMTQSPSSLSAFVGDRVTITCRASQPIDNYLNWYHQKPGKAPKLLIYAASRLQSGVPSRLSGSGFGTDFTLTISSLQPEDFGNYYCQQSYTVPYTFGGGTKVEIR",0.7
4,"X67-D03 (antibody, V domains shown, Single point mutant (F to N at P2 of HC CDR3) of M142-H08; Only variable domains and the start of CH1 are printed; also called 559A-X67-D03) VH: EVQLLESGGGLVQPGGSLRLSCAASGFTFSAYSMIWVRQAPGKGLEWVSYIRPSGGRTTYADSVKGRFTISRDNSKNTLYLQMNSLRAEDTAVYYCARGGLLLWNRELKSNYFDYWGQGTLVTVSS VL: DIQMTQSPSSLSAFVGDRVTITCRASQPIDNYLNWYHQKPGKAPKLLIYAASRLQSGVPSRLSGSGFGTDFTLTISSLQPEDFGNYYCQQSYTVPYTFGGGTKVEIR",0.1
5,"X67-C09 (antibody, V domains shown, Single point mutant (F to G at P2 of HC CDR3) of M142-H08; Only variable domains and the start of CH1 are printed; also called 559A-X67-C09) VH: EVQLLESGGGLVQPGGSLRLSCAASGFTFSAYSMIWVRQAPGKGLEWVSYIRPSGGRTTYADSVKGRFTISRDNSKNTLYLQMNSLRAEDTAVYYCARGGLLLWGRELKSNYFDYWGQGTLVTVSS VL: DIQMTQSPSSLSAFVGDRVTITCRASQPIDNYLNWYHQKPGKAPKLLIYAASRLQSGVPSRLSGSGFGTDFTLTISSLQPEDFGNYYCQQSYTVPYTFGGGTKVEIR",8.6
